These results are taken from paper PMC3575409, “Identification of a Novel Protein-Protein Interaction Motif Mediating Interaction of GPCR-Associated Sorting Proteins with G Protein-Coupled Receptors” (PLoS ONE, 2013).

The target in this assay is full-length ADRB2 (β2 adrenergic receptor). In words: SPR saturation binding, ADRB2. More on the design: species or system human. As to the method: The human ADRB2 and CNR2 receptors were produced using the P. pastoris expression system as previously described, [16]. After methanol-induced receptor expression, cells were washed with PBS pH 7.0 and resuspended in ice-cold buffer A (50 mM Tris-HCl pH 7.4, 500 mM NaCl, 10% glycerol, 5 mM EDTA, 1 mM PMSF, 2 mM DDT). Cells were then lysed with two cycles of 20 s shaking and 20 s cooling on ice using 0.5 mm glass beads in a FastPrep 24 device. Unbroken cells and cell debris were removed by centrifugation (3000 g, 5 min, 4°C) and the membrane fraction from the supernatant was pelleted by ultracentrifugation (100,000 g, 45 min, 4°C). […] Finally membranes were resuspended in buffer B and quantified with the bicinchoninic acid (BCA) method (Pierce).
Approximately 150 mg membrane proteins were extracted by 5 min incubation at room temperature in buffer C (50 mM Tris-HCl pH 7.4, 500 mM NaCl, 10% glycerol, 1 mM PMSF, 2 mM DTT, 50 mM imidazole, 1% (w/v) DDM, 0.1% (w/v) CHS). […] Imidazole was removed from the eluted fraction using a HiTrap 5 ml desalting column (GE Healthcare), purified proteins were quantified using the BCA assay (Pierce) and receptor integrity was analyzed by SDS-PAGE. […]

B1: central domain of GASP-1: central portion of GASP-1 (AA 380 to 1073) that contains 19 GASP motif (protein)
chain: MTKEEAKTKARARAKQEARSEEEALIGTWFWATDESSMADEASIESSLQVEDESIIGSWFWTEEEASMGTGASSKSRPRTDGERIGDSLFGAREKTSMKTGAEATSESILAADDEQVIIGSWFWAGEEVNQEAEEETIFGSWFWVIDAASVESGVGVSCESRTRSEEEEVIGPWFWSGEQVDIEAGIGEEARPGAEEETIFGSWFWAENQTYMDCRAETSCDTMQGAEEEEPIIGSWFWTRVEACVEGDVNSKSSLEDKEEAMIPCFGAKEEVSMKHGTGVRCRFMAGAEETNNKSCFWAEKEPCMYPAGGGSWKSRPEEEEDIVNSWFWSRKYTKPEAIIGSWLWATEESNIDGTGEKAKLLTEEETIINSWFWKEDEAISEATDREESRPEAEEGDIIGSWFWAGEEDRLEPAAETREEDRLAAEKEGIVGSWFGAREETIRREAGSCSKSSPKAEEEEVIIGSWFWEEEASPEAVAGVGFESKPGTEEEEITVGSWFWPEEEASIQAGSQAVEEMESETEEETIFGSWFWDGKEVSEEAGPCCVSKPEDDEEMIVESWFWSRDKAIKETGTVATCESKPENEEGAIVGSWFEAEDEVDNRTDNGSNCGSRTLADEDEAIVGSWFWAGDEAHFESNPSPVFRAICRSTCSVEQEPDPSRRPQSWEEVTVQFKPGPWGRVGFPSISPFRFPKE
modifications: left off: GST, N-terminal, kept
notes: central portion of GASP-1 (AA 380 to 1073) that contains 19 GASP motif
In the case of B1, the “kinetics of the interaction” value is “very stable and had a slow association rate”.
